Results on 1 substance are retold here after patent US20180171024A1.

The target in assay [1] is HLA-A2/WT1-S11 on T2 cells (human). As to the kind of experiment: flow cytometry, peptide-loaded T2 cells (10^-4-10^-5 M), PE anti-mouse.
For assay [2], the target named is HLA-A2/WT1-S6 on T2 cells (human). The assay is described as above.
Assay [3] has as its target HLA-A2/WT1-S3 on T2 cells (human). Described as above.
The target in assay [4] is HLA-A2 on cells (tumor cell lines, normal primary cells, PBMCs) (human). Kind of assay: flow cytometry, renal epithelial cells 4120, 10 µg/ml.
The target is the same in assay [5]. As to the kind of experiment: flow cytometry, 'Umbryonic cells' #HUE-1, 10 µg/ml.
Assay [6] deals with HLA-A2/TyrD-S2 on T2 cells (human). As to the kind of experiment: flow cytometry, T2 cells loaded with TyrD S2 [..], 10 µg/ml.
Assay [7] deals with HLA-A2 on cells (tumor cell lines, normal primary cells, PBMCs) (human). As to the kind of experiment: flow cytometry, cardiac myocytes #6200-2, 10 µg/ml.
The target of assay [8] is HLA-A2/Tyrosinase369-377 complex on cells (human). As to the kind of experiment: flow cytometry, T2 cells loaded with TyrD peptide ([..] printed under the label), 10 µg/ml.
Assay [9] deals with HLA-A2 on cells (tumor cell lines, normal primary cells, PBMCs) (human). As to the kind of experiment: flow cytometry, HEP-G2 cells, 10 µg/ml.
Assay [10] has as its target HLA-A2/TyrD-S14 on T2 cells (human). As to the kind of experiment: flow cytometry, T2 cells loaded with TyrD S14 [..], 10 µg/ml.
Assay [11] concerns the target HLA-A2 on other WT1 negative HLA-A2+ cells (other than 501, A498 and SKMEL; members not named). Kind of assay: flow cytometry on U266 cells (WT1 mRNA -).
Assay [12] has as its target HLA-A2 on cells (tumor cell lines, normal primary cells, PBMCs) (human). As to the kind of experiment: flow cytometry, Malme-3M melanoma cells.
Assay [13] shares this target. As to the kind of experiment: flow cytometry, 501A melanoma cells, 10 µg/ml.
Assay [14] shares this target. Kind of assay: flow cytometry, renal epithelial cells #4100-2, 10 µg/ml.
The target is the same in assay [15]. As to the kind of experiment: flow cytometry, HepG2 cells.
For assay [16] the target is unchanged. Kind of assay: flow cytometry, astrocytes 1840, 10 µg/ml.

Turning to BB7.2 (antibody), the MFI in assay [1] worked out at 1670; in assay [2], 1670; in assay [3], 1410; in assay [4], 889; in [5] it was 553; in [7], 733. The MFI in assay [9] was 315; in assay [11], 80.1; in assay [12] it was 372; in assay [13], 243; in assay [14] it was 1620; in [16], 569. Besides, the MFI relative to background was found to be 929 in assay [6], 848 in assay [8] and 565 in [10]. This substance also returned a GeoMean in assay [15] of 154.
